# Measured values reported in paper PMC2592534.
# Experiments:
# Test in all cases: SPR
# rat ficolin-A M57E (rat) = target: rat ficolin-A M57E (rat)
# rat ficolin-A M57S (rat) = target: rat ficolin-A M57S (rat)
# rat ficolin-A O54A (rat) = rat ficolin-A O54A (rat) (UniProt Q9WTS8)
# rat ficolin-A P59A (rat) = rat ficolin-A P59A (rat) (UniProt Q9WTS8)
# Sequence of rat ficolin-A P59A (rat) (Q9WTS8 18-335 P76A): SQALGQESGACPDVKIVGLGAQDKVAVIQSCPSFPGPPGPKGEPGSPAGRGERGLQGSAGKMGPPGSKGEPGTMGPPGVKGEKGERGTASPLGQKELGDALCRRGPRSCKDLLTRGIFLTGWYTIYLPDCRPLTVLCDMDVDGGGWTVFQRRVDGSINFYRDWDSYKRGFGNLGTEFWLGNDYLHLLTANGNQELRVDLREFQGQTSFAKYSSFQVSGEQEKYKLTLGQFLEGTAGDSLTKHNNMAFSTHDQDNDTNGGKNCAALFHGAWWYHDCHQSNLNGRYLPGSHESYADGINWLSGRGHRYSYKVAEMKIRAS
# Sequence of rat MASP-2A (catalytically inactive MBL-associated serine protease-2, Ser613 to Ala) (Q9JJS8 20-685 S632A): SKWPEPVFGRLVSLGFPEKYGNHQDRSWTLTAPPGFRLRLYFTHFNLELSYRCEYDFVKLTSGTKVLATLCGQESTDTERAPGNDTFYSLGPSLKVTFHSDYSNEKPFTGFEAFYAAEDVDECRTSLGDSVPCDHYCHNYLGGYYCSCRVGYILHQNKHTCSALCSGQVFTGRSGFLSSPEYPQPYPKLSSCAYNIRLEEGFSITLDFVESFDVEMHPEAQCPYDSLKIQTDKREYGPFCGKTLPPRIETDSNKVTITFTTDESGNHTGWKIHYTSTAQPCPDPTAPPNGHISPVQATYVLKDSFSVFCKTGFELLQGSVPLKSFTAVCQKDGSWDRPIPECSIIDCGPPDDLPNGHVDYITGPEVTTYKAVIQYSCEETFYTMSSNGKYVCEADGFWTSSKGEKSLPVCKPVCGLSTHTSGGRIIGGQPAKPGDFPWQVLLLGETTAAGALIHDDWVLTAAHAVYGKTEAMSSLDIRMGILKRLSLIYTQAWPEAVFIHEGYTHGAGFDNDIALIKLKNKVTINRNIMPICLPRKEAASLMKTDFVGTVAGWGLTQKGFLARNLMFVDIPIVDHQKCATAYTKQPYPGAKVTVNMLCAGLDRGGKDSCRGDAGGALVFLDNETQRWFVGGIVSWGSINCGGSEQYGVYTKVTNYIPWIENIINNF
# Sequence of rat ficolin-A O54A (rat) (Q9WTS8 18-335 P54A): as the sequence (Q9WTS8 18-335 P76A) above, with P37A, A59P counted along it
substance,measurement,setting,value
"rat MASP-2A (catalytically inactive MBL-associated serine protease-2, Ser613 to Ala) (from UniProt Q9JJS8 20-685) (enzyme)","KD1 (apparent, two-complex, parallel reaction model)",rat ficolin-A M57E (rat),49 nM
same,"KD2 (apparent, two-complex, parallel reaction model)",rat ficolin-A M57E (rat),3.23 µM
same,"koff of complex 2 (two-complex, parallel reaction model)",rat ficolin-A M57E (rat),0.0094 s⁻¹
same,"KD1 (apparent, two-complex, parallel reaction model)",rat ficolin-A M57S (rat),11.6 nM
same,"KD2 (apparent, two-complex, parallel reaction model)",rat ficolin-A M57S (rat),133 nM
same,"koff of complex 2 (two-complex, parallel reaction model)",rat ficolin-A M57S (rat),0.0048 s⁻¹
same,"kon of complex 1 (two-complex, parallel reaction model)",rat ficolin-A M57S (rat),410000 M⁻¹ s⁻¹
same,"kon of complex 2 (two-complex, parallel reaction model)",rat ficolin-A M57S (rat),37000 M⁻¹ s⁻¹
same,"KD2 (apparent, two-complex, parallel reaction model)",rat ficolin-A O54A (rat),153 nM
same,"KD1 (apparent, two-complex, parallel reaction model)",rat ficolin-A P59A (rat),6.8 nM
same,"KD2 (apparent, two-complex, parallel reaction model)",rat ficolin-A P59A (rat),253 nM
same,"kon of complex 1 (two-complex, parallel reaction model)",rat ficolin-A P59A (rat),1.13e+06 M⁻¹ s⁻¹
same,"kon of complex 2 (two-complex, parallel reaction model)",rat ficolin-A P59A (rat),42000 M⁻¹ s⁻¹
